Test results from patent publication US20210244739A1.

Molecular target: human protein kinase R (PKR) (human) (UniProt P19525)
Assay: cell-based or functional assay

Sequence of UniProt P19525 (P19525 2-551 limits assumed): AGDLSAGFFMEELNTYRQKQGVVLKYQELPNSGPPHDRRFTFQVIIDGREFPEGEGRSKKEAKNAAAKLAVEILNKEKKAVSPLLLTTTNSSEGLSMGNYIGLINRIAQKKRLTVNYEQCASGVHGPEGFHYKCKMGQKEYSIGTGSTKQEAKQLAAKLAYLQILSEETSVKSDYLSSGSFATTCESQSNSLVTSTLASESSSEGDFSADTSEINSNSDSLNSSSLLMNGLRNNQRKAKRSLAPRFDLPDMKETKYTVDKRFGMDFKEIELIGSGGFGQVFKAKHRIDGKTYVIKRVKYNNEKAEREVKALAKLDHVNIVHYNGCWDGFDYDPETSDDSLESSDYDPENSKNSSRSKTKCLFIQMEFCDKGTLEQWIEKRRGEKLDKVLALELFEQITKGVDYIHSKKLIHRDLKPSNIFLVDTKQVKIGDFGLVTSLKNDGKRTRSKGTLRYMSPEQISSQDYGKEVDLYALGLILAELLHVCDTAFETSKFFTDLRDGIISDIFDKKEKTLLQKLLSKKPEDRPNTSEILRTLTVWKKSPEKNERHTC

## Yaba monkey tumor virus 012 (K3 ortholog)
  virus titre increase between 5 hpi and 48 hpi in HeLa cells: > 10 fold
